Drawing on publication PMC9693254, this text covers Km and Vmax for two proteins.

As a reminder, the Km is the substrate concentration at which the rate is half of its maximum. The term Vmax denotes the rate approached at saturating substrate.

Substrate in the data set: CCOC(=O)[C@H](CCCNC(=N)N)NC(=O)c1ccccc1
The data set is described as follows: purified protein. Conditions: 50 mM Tris/HCl pH 8.0, 25 mM NaCl, 1 mM EDTA, 25 °C, substrate 25–100 μM, apparent Km, numbering of proCCN.

The mark [1] stands for this setting: CCN' auto-processed from proCCN'.
[2] abbreviates: mature CCN' prepared from [K8D,K63G,K131G,K133A]-proCCN (K8D lies in the removed propeptide,.

B1: cocoonase (CCN), mature form (Bombyx mori; K85G) (protein)
chain: IVGGEEISINKVPYQAYLLLQKDNEYFQCGGSIISKRHILTAAHCIEGISGVTVRIGSSNSNKGGTVYTAKSKVAHPKYNSKTKNNDFAIVTVNKDMAIDGKTTKIITLAKEGSSVPDKTKLLVSGWGATSEGGSSSTTLRAVHVQAHSDDECKKYFRSLTSNMFCAGPPEGGKDSCQGDSGGPAVKGNVQLGVVSFGVGCARKNNPGIYAKVSAAAKWIKST
As for B1, the Km turned out to be 400 µM and the Vmax came out at 0.006 µM/min.

B2: cocoonase (CCN), mature form (Bombyx mori; K153G/K155A/K85G) (protein)
chain: IVGGEEISINKVPYQAYLLLQKDNEYFQCGGSIISKRHILTAAHCIEGISGVTVRIGSSNSNKGGTVYTAKSKVAHPKYNSKTKNNDFAIVTVNKDMAIDGKTTKIITLAKEGSSVPDGTALLVSGWGATSEGGSSSTTLRAVHVQAHSDDECKKYFRSLTSNMFCAGPPEGGKDSCQGDSGGPAVKGNVQLGVVSFGVGCARKNNPGIYAKVSAAAKWIKST
Turning to B2, the Km is, setting by setting: under setting [1], 370 µM; under setting [2], 920 µM. Further, the Vmax is, setting by setting: under setting [1], 0.0084 µM/min; under setting [2], 0.0276 µM/min.
